± gives the standard deviation of the averaged measurements.
The sequences below were run on ATP (assay: switch fluorescence ratio, 500 uM ATP over buffer (Cy3 cluster intensity, sum of 5 cycles each) (fold (ratio)); higher = stronger signal-on switching upon ATP binding; sequences stand for … in TCGTCGGCAGCGTCAGATGTGTATAAGAGACAGTTTTTTTTTTTTTTTTTTTTTTTTT…TC). Conditions: aptamer strand: ATP DNA aptamer (quencher-CACCTGGGGGAGTATTGCGGAGGAAGG + anchor), 100 nM annealed; ATP concentration: 500 uM.
Summary of the method: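 Switching-strand clusters labelled with Cy3 on a modified Illumina MiSeq flow-cell were annealed to 100 nM quencher-labelled ATP aptamer, imaged in selection buffer, and re-imaged after 15 min with 500 uM ATP at 22 °C. This was done over five cycles with NaOH stripping and re-annealing in between. The fluorescence ratio is summed target-cycle over summed buffer-cycle Cy3 intensity per cluster, averaged per switch-domain sequence, excluding clusters outside 100-1000 RFU.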
GAAGGGAGGT showed a switch fluorescence ratio of 0.987 ± 0.012. In the case of GAAGGGGCGA, the switch fluorescence ratio is reported as 0.972 ± 0.018. For GAAGGGGGG, the switch fluorescence ratio was 1.001 ± 0.0094. With GAAGGGGGGT the switch fluorescence ratio was 0.997 ± 0.029. Sequence GAAGGGGGTT has a switch fluorescence ratio of 0.973 ± 0.036. GAAGGGGTTA gave a switch fluorescence ratio of 1.03 ± 0.087. GAAGGGTACG was tested, and the switch fluorescence ratio was 1.07 ± 0.091. Work on GAAGGGTTAC yielded a switch fluorescence ratio of 1.15 ± 0.15. GAAGGGTTGG was tested, and the switch fluorescence ratio was 0.999 ± 0.014. With GAAGGGTTTG the switch fluorescence ratio was 0.9968 ± 0.0053. For GAAGGTATTT, the switch fluorescence ratio was 0.9517 ± 0.0056. For GAAGGTCAGT, the switch fluorescence ratio was 0.971 ± 0.051. GAAGGTGGTG gave a switch fluorescence ratio of 0.961 ± 0.032. GAAGGTTCGT showed a switch fluorescence ratio of 1 ± 0.034. With GAAGTAGGCG the switch fluorescence ratio was 1.03 ± 0.028. GAAGTAGGTG was tested, and the switch fluorescence ratio was 1.02 ± 0.012. In the case of GAAGTAGTTT, the switch fluorescence ratio is reported as 0.98 ± 0.089. For GAAGTATGCA, the switch fluorescence ratio was 1.04 ± 0.031. GAAGTATGGG showed a switch fluorescence ratio of 0.956 ± 0.024. Work on GAAGTATGTG yielded a switch fluorescence ratio of 1.006 ± 0.0092. In the case of GAAGTCCTGT, the switch fluorescence ratio is reported as 0.998 ± 0.021. Work on GAAGTGAGCA yielded a switch fluorescence ratio of 1.01 ± 0.044. GAAGTGCGGT showed a switch fluorescence ratio of 0.98474 ± 0.00042. GAAGTGGTTT gave a switch fluorescence ratio of 0.997 ± 0.025. GAAGTGTCGG gave a switch fluorescence ratio of 1.005 ± 0.0057. For GAAGTTAGGT, the switch fluorescence ratio was 0.9981 ± 0.0087. For GAAGTTATTG, the switch fluorescence ratio was 0.9898 ± 0.0022. GAAGTTCGAG showed a switch fluorescence ratio of 0.998 ± 0.016. GAAGTTGGGT showed a switch fluorescence ratio of 1.01 ± 0.029. For GAATAAAATG, the switch fluorescence ratio was 1.04 ± 0.013. Sequence GAATACCTTT has a switch fluorescence ratio of 1.02 ± 0.013. For GAATAGGGTG, the switch fluorescence ratio was 1.08 ± 0.039. GAATATAGTG showed a switch fluorescence ratio of 1.02 ± 0.011. With GAATATAGTT the switch fluorescence ratio was 0.9947 ± 0.0078. GAATATGTGG showed a switch fluorescence ratio of 1 ± 0.013. GAATATTTTG showed a switch fluorescence ratio of 0.994 ± 0.015. GAATCAATGG gave a switch fluorescence ratio of 1.03 ± 0.02. With GAATCATGTT the switch fluorescence ratio was 0.9915 ± 0.0065. With GAATCCAGTT the switch fluorescence ratio was 0.989 ± 0.02. GAATCCGTTC showed a switch fluorescence ratio of 1.07 ± 0.026. Work on GAATCGATAC yielded a switch fluorescence ratio of 1.76 ± 0.084. GAATCGGGGT was tested, and the switch fluorescence ratio was 0.992 ± 0.045. Sequence GAATCTCGGA has a switch fluorescence ratio of 1.018 ± 0.0018. Sequence GAATGAAGAA has a switch fluorescence ratio of 0.9989 ± 0.0081. With GAATGAGATC the switch fluorescence ratio was 1.01 ± 0.11. GAATGAGATT was tested, and the switch fluorescence ratio was 1.001 ± 0.0043. In the case of GAATGGAGGT, the switch fluorescence ratio is reported as 1.01 ± 0.021. In the case of GAATGGCTAG, the switch fluorescence ratio is reported as 1.0109 ± 0.00049. GAATGGCTGG was tested, and the switch fluorescence ratio was 0.962 ± 0.0099. Sequence GAATGGGAGT has a switch fluorescence ratio of 0.9969 ± 0.0051. GAATGGGTAT gave a switch fluorescence ratio of 0.979 ± 0.026. Work on GAATGGTAGT yielded a switch fluorescence ratio of 1.025 ± 0.0078. Work on GAATGTATCG yielded a switch fluorescence ratio of 0.981 ± 0.021. GAATGTATGA was tested, and the switch fluorescence ratio was 0.99 ± 0.023. GAATGTTCAG was tested, and the switch fluorescence ratio was 1.02 ± 0.024. GAATGTTCTG was tested, and the switch fluorescence ratio was 0.996 ± 0.052. With GAATTAGAGA the switch fluorescence ratio was 1.03 ± 0.033. GAATTAGGGA gave a switch fluorescence ratio of 1.01 ± 0.018. Work on GAATTATCAG yielded a switch fluorescence ratio of 0.968 ± 0.045. GAATTATGTT showed a switch fluorescence ratio of 1.01 ± 0.004. With GAATTGGGGG the switch fluorescence ratio was 1.01 ± 0.03. In the case of GAATTTCGGG, the switch fluorescence ratio is reported as 0.996 ± 0.013. GAATTTGAGC gave a switch fluorescence ratio of 1.03 ± 0.02. GAATTTGGAA was tested, and the switch fluorescence ratio was 1.01 ± 0.022. GAATTTGTGA gave a switch fluorescence ratio of 0.98 ± 0.035. In the case of GAATTTGTGG, the switch fluorescence ratio is reported as 0.995 ± 0.037. With GAATTTTGG the switch fluorescence ratio was 0.9824 ± 0.0032. GAATTTTTTC was tested, and the switch fluorescence ratio was 1.02 ± 0.016. With GACAAATCTG the switch fluorescence ratio was 1.04 ± 0.043. GACAACGGAT showed a switch fluorescence ratio of 1.02 ± 0.03. GACAACTTTT gave a switch fluorescence ratio of 0.991 ± 0.016. For GACAATTCTT, the switch fluorescence ratio was 1.006 ± 0.0096. Sequence GACACAGGGG has a switch fluorescence ratio of 1.06 ± 0.047. GACACATCAA showed a switch fluorescence ratio of 1.048 ± 0.008. GACACCAATC showed a switch fluorescence ratio of 1.36 ± 0.052. GACACGGGGT gave a switch fluorescence ratio of 1 ± 0.071. For GACACGTGGG, the switch fluorescence ratio was 1.02 ± 0.055. GACAGAGCCA was tested, and the switch fluorescence ratio was 1.1036 ± 0.0011. Work on GACAGAGGGT yielded a switch fluorescence ratio of 1.04 ± 0.013. With GACAGCGGCG the switch fluorescence ratio was 1.01 ± 0.032. GACAGGGTCC gave a switch fluorescence ratio of 1.04 ± 0.052. GACAGTCGGC showed a switch fluorescence ratio of 0.9669 ± 0.0067. Work on GACATAAAGT yielded a switch fluorescence ratio of 0.986 ± 0.014. GACATCCGGC showed a switch fluorescence ratio of 1.05 ± 0.036. Sequence GACATGATGT has a switch fluorescence ratio of 1.032 ± 0.0063. GACATTCACC was tested, and the switch fluorescence ratio was 1.1 ± 0.016. In the case of GACCAAGAAT, the switch fluorescence ratio is reported as 1.06 ± 0.03. GACCAATATT gave a switch fluorescence ratio of 1.134 ± 0.0034. In the case of GACCACGCTG, the switch fluorescence ratio is reported as 1.044 ± 0.0056. GACCAGCCCC showed a switch fluorescence ratio of 1.31 ± 0.098. GACCATGTTT gave a switch fluorescence ratio of 0.9932 ± 0.0082. For GACCCTAGAT, the switch fluorescence ratio was 1.008 ± 0.0036. GACCCTGATA showed a switch fluorescence ratio of 0.987 ± 0.015. GACCGGACAT showed a switch fluorescence ratio of 0.996 ± 0.013. GACCGGAGTC gave a switch fluorescence ratio of 1.03 ± 0.049. In the case of GACCGTAATG, the switch fluorescence ratio is reported as 1.05 ± 0.03. GACCTAAGAC gave a switch fluorescence ratio of 1.13 ± 0.053. With GACCTATATT the switch fluorescence ratio was 1.05 ± 0.022. GACCTATCTT was tested, and the switch fluorescence ratio was 1.035 ± 0.0017. GACCTATTCG showed a switch fluorescence ratio of 1.01 ± 0.018.
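Further: ATP exposure 15 min at 22 °C before imaging.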
